Experiment: yeast display, Sf9 membrane polyspecificity reagent, FACS + sequencing; frameworks hold sequencing errors
Outline: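 Polyreactivity labels are assigned by the sorting gate from which each nanobody was recovered. The gates were low and high (top ~1%), set on anti-HA fluorescence for expression and streptavidin fluorescence for reagent binding. Before sorting, galactose-induced (36–48 hours) yeast display cells were stained for 1 hour at 4 °C with 10% biotinylated, detergent-solubilized Sf9 membrane reagent.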

Sequence | polyreactivity (PSR sort gate)
QVQLVESGGGLVQAGGSLRLSSAASGLNFYWYAMGWSRQAPGKERELVAAISTAGSTNYADSVKGRFTISRDNAKNTVYLQMISLKPEDTAVYYCNARIAYRYSNYGYWGQGTQVTVSS | low polyreactivity
QVQLVESGGGLVQAGGSLRLSSAASGLTFYRNAMGWYRQAPGKERELVAGISSSGASTYYADSVKGRFTISRDNAKNTVYLQMNSLKPEDTAVYYCAVRFYGRYLRYNYWGQGTQVTVSS | high polyreactivity
QVQLVESGGGLVQAGGSLRLSSAASGLTFYVYAMGWYRQGPGKEREWVARITWSGGSTYYADSVKGRFTISRDHAKNTVYLQMNSLKPEDTAVYYCAAEWSEESDYWGQGTQVTVSS | low polyreactivity
QVQLVESGGGLVQAGGSLRLSSAASGLTIYYYAMGWYRQAPGKERELVAAITWRGGSTYYADSVKGRFTISRDNAKYPDYLQMNCLIPAVTAVYYSAADPGPYGYYYWGQGTQVTVSS | low polyreactivity
QVQLVESGGGLVQAGGSLRLSSAASGNIFDYYAMGCYRQAPGKERELVASISWSGRGTYYADSVKGRFTISRDNAKNTVYVQMTSLKAEDTAVYYCAADGSTVNAPRWSDPYDYWGQGSQVTVSS | low polyreactivity
QVQLVESGGGLVQAGGSLRLSSAASGNIMDVYAMGWYRQAPGKERELVAAISGTDGSTYYADSVKGRFTISRDNAKNTVYLQMNSLKPEDTAVYYCAAEYVYFWWGENYWGQGTQVTVSS | high polyreactivity
QVQLVESGGGLVQAGGSLRLSSAASGNNFHFYAMGSYRQAPGKERELVATISWRGDGTYYADSVKGRFTISRDNAKNTVYLQMNSLKPEDTAVYYCAGRGVWPEYDYWGQGTQVNVSS | low polyreactivity
QVQLVESGGGLVQAGGSLRLSSAASGRIFARYAMGWYIQAPGKERELVAAITVSGDNTYYADSVKGRFTISRDNAKNTVYLQMNSRKPEDSADYYCDVRAVLLFGFFEYDYWGHGTQVTVSS | low polyreactivity
QVQLVESGGGLVQAGGSLRLSSAASGRIFFGNTMGWYRQAPGKERELVATIRKIGGRTYYADSVKGRFTISRDNAKNTVYLQMNSLKPEDTAVYYCATDFAPSYYPDRFDYWGQGTQVTVSS | low polyreactivity
QVQLVESGGGLVQAGGSLRLSSAASGRIFKIYPMVWYRQAPGKERELVAAISGRGGSTYYADSVKGRFTISRDNAKNTVYLQMISLKPEDTAVYYCAAVGYGFSAYSTYDYWGQGTQVTVSS | high polyreactivity
QVQLVESGGGLVQAGGSLRLSSAASGRIFKYYAMGWYRQAPGKERELVAAISWRGGRTYYADSVKGRFTISRDNAKNTVYLQMNSLKPEDTAVYYCAAEWYATMGYWGQGTQVTVSS | low polyreactivity
QVQLVESGGGLVQAGGSLRLSSAASGRIFPHNAMGWYRQAPGKERELVAAISSNGGSTYYADSVKGRFTISRDNAKNTVYLQMNSLKPEDTAVYYCAKYRYFAGDGDYWGQGTQVTVSS | low polyreactivity
QVQLVESGGGLVQAGGSLRLSSAASGRIFQRYAMGCYRQAPGKERELVAAISGSGGRTYYADSVKGRFTISRDNAKNTVYLQLNSLKPDDSAVYYCAAYPSYYADSGLRYDYWGQGTQVTVSS | high polyreactivity
QVQLVESGGGLVQAGGSLRLSSAASGRIFRWYAMGWYRQAPGKERELVATISSTGGSTYYADSVKGRFTISRDNAKNTVYLQMNSLKPEDTAVYYSNAVVYGIFLYAWYDYWGQGTQVTVSS | low polyreactivity
QVQLVESGGGLVQAGGSLRLSSAASGRIFRYYTMGWYRQAPGKERELVATITSDGRTNYADSVNGRFTISRDNAKNSVYLQMNSLKPEDTAVYYCAARYVMGGQGTSRRVGGGYWGQGTQVTVSS | high polyreactivity
QVQLVESGGGLVQAGGSLRLSSAASGRIFSRYAMGWYRQAPGKERELVAAITQSGTSTYYADSVKGRFTISRDNAKNTVYLQMNSLKPEDTAVYYCNAYRQYRYDYWGQGSQVTVSS | low polyreactivity

Sequence | polyreactivity (PSR sort gate)
QVQLVESGGGLVQAGGSLRLSSAASGRIFYGYAMGWYRQAPGKERELVAGISKRGGSTRYADSVKGRFTISRDNAKNTVYLHMNSLKPEDTAVYYCNRLPYLHYAGRLTNYDYWGQGTQVTVSS | high polyreactivity
QVQLVESGGGLVQAGGSLRLSSAASGRIFYKYAMGWNRQAPGKERELVAGITGSGGSTYYADSVKGRFTISRDNAKNTVYLQMNSLKPEDTAVYYCAKRVSYDYWGQGTQVTVSS | low polyreactivity
QVQLVESGGGLVQAGGSLRLSSAASGRISDFYTMGWYRQAPGKERELVAVIRTSGGRTNYADSVKGRFTISRDNAKNTVYLQMNSLKPEDTAVYYCAARVVRYGYKYYYWGQGTQVTVSS | low polyreactivity
QVQLVESGGGLVQAGGSLRLSSAASGRTFAWNAMGWYRQAPGKERELVAAISYNGGRTYYADSVKGRFTISRDNAKNTVYLQMNSLKPEDTAVYYCAAQRYGYWGQGTQVTVSS | high polyreactivity
QVQLVESGGGLVQAGGSLRLSSAASGRTFAWYAMGWYRQAPGKERELVAAISSGGSTYYADSVKGRFTISRDNAKNTVYLQMDSLKPEDTAVYYCAAEWHYIYAYDYWGQGTQVTVSS | low polyreactivity
QVQLVESGGGLVQAGGSLRLSSAASGRTFFRSGMGWYRQAPGKEREFVAAITRSGTTTYYADSVKGRFTISRDNAKQTVYLPMNSLQPEDTAVYYCAAQRAAPVDGKSDYWGHGTQVTVSS | low polyreactivity
QVQLVESGGGLVQAGGSLRLSSAASGRTFNYYTMGWYRQAPGKERELVAAITNGGSTNYADSVKGRFTISRDNAKNTVYLQMNSLKPEDTAVYYCNADAFAFRTLHYDYWGQGTQVTVSS | low polyreactivity
QVQLVESGGGLVQAGGSLRLSSAASGRTFRGNAMGWYSQAPGKERELVAAIRWNGGSTYYADSVKGRFTISRDNAKNTVYLQMNSLKPEDTAVYYCAVSYWYSRYDYWGQGTQVTVSS | high polyreactivity
QVQLVESGGGLVQAGGSLRLSSAASGRTFSAYAMGWYRQAPGKERELVARITSVDSTNYADSVKGRFTISRDNAKNTVYLQMNSLKPEDTAVYYCNVVNEHQSDFVVPFDYNHWGQGTQVTVSS | low polyreactivity
QVQLVESGGGLVQAGGSLRLSSAASGRTFSRYAMGWYRQAPGKERELVATISWSGGSTYYADSVKGRFTISRDNAKNTVYLQMNSLNPEDTAVYYCAAKGVYQYRFTKYGYWGQGTQVTVSS | high polyreactivity
QVQLVESGGGLVQAGGSLRLSSAASGRTFTHYAMGWYSQAPGKERELGASISDGGRTHYADSVKGRFTISRDNAKNTVSLQMNSLKPVDPAVYYCATDRYPTRRYDYWGQGSQVTVSS | low polyreactivity
QVQLVESGGGLVQAGGSLRLSSAASGRTIAYYTKGWYRQAPGKVRELVAAITWTGGRTYYPDSVKGRFTISRDIAKNTVYLQMNSLQPEDTAVYYCATQHRAGAYYLYTPYDYWGQGTQVTVSS | high polyreactivity
QVQLVESGGGLVQAGGSLRLSSAASGRTLIWYTMGWYRPAPGKERELVAAITSGGSTYYADSVKGRFTISRDNAKNTVYLQMNSLKPEDTAVYYCNARSAFWGWGYGSYDYWGQGTQVTVSS | low polyreactivity
QVQLVESGGGLVQAGGSLRLSSAASGSIFASYAMGWYRQAPGKERELVAAISRSGGSTYYADSVKGRFTISRDNAKNTVYLQMNSLIPEDTAVYYCATGKIREDDYWGQGTQVTVSS | high polyreactivity
QVQLVESGGGLVQAGGSLRLSSAASGSIFAYYAMGWSRQAPGKEWELVAAITSGGNTKYADSVKGRFTISRDNAKNTVYLQMNCLKPEDTAVYYCASYRTRALWGQGYGYWGHGTQVTVSS | high polyreactivity
QVQLVESGGGLVQAGGSLRLSSAASGSIFELNAMGWYRQAPGKERELVAAIRWRTGRTYYADSVKGRFTISRDNAKNTVYLQMNSLKPEDTAVYYCARVAPASGVRWYYYWGQGTQVTVSS | high polyreactivity
